Experiments:
[1] = tested on: PD-L1 on melanoma B16 cells; assay: PD-L1 expression level by flow cytometry; type: cell-based, murine; conditions: 5 μM harmine or 50 μg/ml interferon, 24 hours
Procedure: Melanoma B16 cells were treated by 5 μM harmine or 50 μg/ml interferon for 24 hours. PD-L1 level was assessed by flow cytometry using the FMI mode.
This can be considered as a favourable property because PD-L1 overexpression in tumour cells is constantly associated with poorer overall survival in cancer patients.

L929 cells = conditions: cited from earlier work

B1: interferon gamma: interferon gamma, known to increase the MHC I density at the cell membrane; positive control (protein, UniProt P01580 23-155, looked up)
Interferon gamma: HGTVIESLESLNNYFNSSGIDVEEKSLFLDIWRNWQKDGDMKILQSQIISFYLRLFEVLKDNQAISNNISVIESHLITTFFSNSKAKKDAFMSIAKFEVNNPQVQRQAFNELIRVVHQLLPESSLRKRKRSRC
PD-L1 expression at the membrane [1]: huge effect
fluorescent intensity (MHC class I and actin staining) (L929 cells; IFN-γ pre-treated cells compared to cells only): more fluorescent intensity
actin density (L929 cells): significant increase of actin density
